Source: US20140154252A1 (EMERGENT PRODUCT DEVELOPMENT SEATTLE, published 2014)
Each block holds one binder with its values, some of them ahead of it.

Legend:
[1] = target: T1, CD20 (human, UniProt P11836 1-297); experiment: flow cytometry, upper graph taken as panel A of the legend = WIL-2S cells (CD20); FITC goat anti-human IgG [upper graph]
T1 construct: whole, on cells; 2H7 is called murine anti-human CD20; also called CD20 presented on WIL-2S cells; CD20 on Ramos, BJAB, SU-DHL-6 and DoHH2 B cells
T1 sequence (looked up): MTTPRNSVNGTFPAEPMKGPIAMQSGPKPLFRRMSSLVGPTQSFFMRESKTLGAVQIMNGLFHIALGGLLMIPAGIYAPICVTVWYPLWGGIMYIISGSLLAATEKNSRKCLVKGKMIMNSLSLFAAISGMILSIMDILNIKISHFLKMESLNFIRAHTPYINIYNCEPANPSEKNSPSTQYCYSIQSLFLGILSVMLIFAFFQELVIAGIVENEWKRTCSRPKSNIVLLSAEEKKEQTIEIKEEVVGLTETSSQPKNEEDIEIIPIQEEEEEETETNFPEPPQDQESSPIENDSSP
Protocol: (§1) Seeded plates containing the proteins were incubated on ice for one hour. Subsequently, the wells were washed once with 200 μl 1% FBS in PBS. Goat anti-human antibody labeled with FITC (Fc Sp) at 1:100 was then added to each well, and the plates were again incubated on ice for one hour. The plates were then washed once with 200 μl 1% FBS in PBS and the cells were re-suspended in 200 μl 1% FBS and analyzed by FACS.
(§2) To assess the binding properties of the anti-CD28 peptide 2E12 VHVL, CD28-expressing CHO cells were plated by seeding in individual wells of a culture plate. […] The 2E12IgGvHvL SMIP purified protein was added to individual seeded wells, again using a two-fold dilution scheme, i.e., from 20 μg/ml down to […]. One well received no protein to provide a background control. The plates were then incubated on ice for one hour, washed once with 200 μl 1% FBS in PBS, and goat anti-human antibody labeled with FITC (Fc Sp) at 1:100 was added to each well. The plates were again incubated on ice for one hour and subsequently washed once with 200 μl 1% FBS in PBS. Following re-suspension of the cells in 200 μl 1% FBS, FACS analysis was performed.

[2] = target: T2, CD28 presented on CHO cells (UniProt P10747 19-220, limits assumed); experiment: flow cytometry, lower graph taken as panel B of the legend = CD28 CHO cells; FITC goat anti-human IgG [lower graph]
T2 construct: whole, on cells; also called CD28 CHO; CD28-expressing CHO cells
Protocol: as §1, §2

[3] = target: T3, CD28mIgG (UniProt P10747 19-152); experiment: sandwich flow cytometry: fusion protein titrated on WIL-2S cells (held by CD20), then CD28mIgG, then FITC anti-mouse
T3 construct: Bought reagent; the construct is not described; also called CD28Ig (Ancell); CD28 fused to mouse antibody; not shown: mouse Ig part of the bought fusion; not described

[4] = target: T1, CD20; experiment: flow cytometry on WIL2-S cells (CD20), protein A purified protein at 0.72 ug/ml, FITC goat anti-human IgG
Protocol: “L1-L6” refers to the 2H7-sss-hIgG-Lx-2e12 molecules where […] represents the L1-L6 linkers and the 2e12 V regions in the orientation of VL-VH. All the molecules were tested at a concentration of 0.72 μg/ml, and the binding detected using FITC conjugated goat anti-human IgG at 1:100.

B1: 2H7-sss-hIgG-H7-2e12 HL (bispecific antibody)
chain: QIVLSQSPAILSASPGEKVTMTCRASSSVSYMHWYQQKPGSSPKPWIYAPSNLASGVPARFSGSGSGTSYSLTISRVEAEDAATYYCQQWSFNPPTFGAGTKLELKDGGGSGGGGSGGGGSSQAYLQQSGAESVRPGASVKMSCKASGYTFTSYNMHWVKQTPRQGLEWIGAIYPGNGDTSYNQKFKGKATLTVDKSSSTAYMQLSSLTSEDSAVYFCARVVYYSNSYWYFDVWGTGTTVTVSEPKSSDKTHTSPPSPAPELLGGSSVFLFPPKPKDTLMISRTPEVTCVVVDVSHEDPEVKFNWYVDGVEVHNAKTKPREEQYNSTYRVVSVLTVLHQDWLNGKEYKCKVSNKALPASIEKTISKAKGQPREPQVYTLPPSRDELTKNQVSLTCLVKGFYPSDIAVEWESNGQPENNYKTTPPVLDSDGSFFLYSKLTVDKSRWQQGNVFSCSVMHEALHNHYTQKSLSLSPGKGCPPCPNSQVQLKESGPGLVAPSQSLSITCTVSGFSLTGYGVNWVRQPPGKGLEWLGMIWGDGSTDYNSALKSRLSITKDNSKSQVFLKMNSLQTDDTARYYCARDGYSNFHYYVMDYWGQGTSVTVSSGGGGSGGGGSGGGGSGGGGSDIVLTQSPASLAVSLGQRATISCRASESVEYYVTSLMQWYQQKPGQPPKLLISAASNVESGVPARFSGSGSGTDFSLNIHPVEEDDIAMYFCQQSRKVPWTFGGGTKLEIKR
notes: Assembled from modules as m11; also called 2H7-sss-IgG-H7-2e12-HL
EC50 (read off the curve) [1]: ~1 µg/mL | EC50 (read off the curve) [2]: ~0.5 µg/mL | EC50 (read off the curve) [3]: ~0.3 µg/mL

B2: 2H7-sss-hIgG-L6-2e12 (H6 linker, 2e12 VL-VH) (bispecific antibody)
chain (part 1 of 2): QIVLSQSPAILSASPGEKVTMTCRASSSVSYMHWYQQKPGSSPKPWIYAPSNLASGVPARFSGSGSGTSYSLTISRVEAEDAATYYCQQWSFNPPTFGAGTKLELKDGGGSGGGGSGGGGSSQAYLQQSGAESVRPGASVKMSCKASGYTFTSYNMHWVKQTPRQGLEWIGAIYPGNGDTSYNQKFKGKATLTVDKSSSTAYMQLSSLTSEDSAVYFCARVVYYSNSYWYFDVWGTGTTVTVSEPKSSDKTHTSPPSP
chain (part 2 of 2): GGGGSGGGGSGGGGSGNSDIVLTQSPASLAVSLGQRATISCRASESVEYYVTSLMQWYQQKPGQPPKLLISAASNVESGVPARFSGSGSGTDFSLNIHPVEEDDIAMYFCQQSRKVPWTFGGGTKLEIKRGGGGSGGGGSGGGGSQVQLKESGPGLVAPSQSLSITCTVSGFSLTGYGVNWVRQPPGKGLEWLGMIWGDGSTDYNSALKSRLSITKDNSKSQVFLKMNSLQTDDTARYYCARDGYSNFHYYVMDYWGQGTSVTVSS
notes: Assembled from modules as m10; not shown: human IgG1 CH2-CH3
binding result [4]: binds

B3: 2H7-sss-hIgG-L2-2e12 (H2 linker, 2e12 VL-VH) (bispecific antibody)
chain (part 1 of 2): B2 chain (part 1 of 2)
chain (part 2 of 2): GGGGSGNSDIVLTQSPASLAVSLGQRATISCRASESVEYYVTSLMQWYQQKPGQPPKLLISAASNVESGVPARFSGSGSGTDFSLNIHPVEEDDIAMYFCQQSRKVPWTFGGGTKLEIKRGGGGSGGGGSGGGGSQVQLKESGPGLVAPSQSLSITCTVSGFSLTGYGVNWVRQPPGKGLEWLGMIWGDGSTDYNSALKSRLSITKDNSKSQVFLKMNSLQTDDTARYYCARDGYSNFHYYVMDYWGQGTSVTVSS
notes: as for B2
binding result [4]: binds

B9: 2H7-sss-hIgG P238S/P331S-H3-2e12 VHVL (bispecific antibody)
chain: QIVLSQSPAILSASPGEKVTMTCRASSSVSYMHWYQQKPGSSPKPWIYAPSNLASGVPARFSGSGSGTSYSLTISRVEAEDAATYYCQQWSFNPPTFGAGTKLELKDGGGSGGGGSGGGGSSQAYLQQSGAESVRPGASVKMSCKASGYTFTSYNMHWVKQTPRQGLEWIGAIYPGNGDTSYNQKFKGKATLTVDKSSSTAYMQLSSLTSEDSAVYFCARVVYYSNSYWYFDVWGTGTTVTVSEPKSSDKTHTSPPSPAPELLGGSSVFLFPPKPKDTLMISRTPEVTCVVVDVSHEDPEVKFNWYVDGVEVHNAKTKPREEQYNSTYRVVSVLTVLHQDWLNGKEYKCKVSNKALPASIEKTISKAKGQPREPQVYTLPPSRDELTKNQVSLTCLVKGFYPSDIAVEWESNGQPENNYKTTPPVLDSDGSFFLYSKLTVDKSRWQQGNVFSCSVMHEALHNHYTQKSLSLSPGKNYGGGGSGNSQVQLKESGPGLVAPSQSLSITCTVSGFSLTGYGVNWVRQPPGKGLEWLGMIWGDGSTDYNSALKSRLSITKDNSKSQVFLKMNSLQTDDTARYYCARDGYSNFHYYVMDYWGQGTSVTVSSGGGGSGGGGSGGGGSGGGGSDIVLTQSPASLAVSLGQRATISCRASESVEYYVTSLMQWYQQKPGQPPKLLISAASNVESGVPARFSGSGSGTDFSLNIHPVEEDDIAMYFCQQSRKVPWTFGGGTKLEIKR
notes: Assembled from modules as m11; also called 2H7-sss-hIgG-H3-2e12 HL
EC50 (read off the curve) [1]: ~1 µg/mL | EC50 (read off the curve) [2]: ~0.8 µg/mL | EC50 (read off the curve) [3]: ~0.4 µg/mL

Second part, the binder after the results:

binding result [4]: binds
B4: 2H7-sss-hIgG-L4-2e12 (H4 linker, 2e12 VL-VH) (bispecific antibody)
chain (part 1 of 2): B2 chain (part 1 of 2)
chain (part 2 of 2): GGGGSGGGGSGNSDIVLTQSPASLAVSLGQRATISCRASESVEYYVTSLMQWYQQKPGQPPKLLISAASNVESGVPARFSGSGSGTDFSLNIHPVEEDDIAMYFCQQSRKVPWTFGGGTKLEIKRGGGGSGGGGSGGGGSQVQLKESGPGLVAPSQSLSITCTVSGFSLTGYGVNWVRQPPGKGLEWLGMIWGDGSTDYNSALKSRLSITKDNSKSQVFLKMNSLQTDDTARYYCARDGYSNFHYYVMDYWGQGTSVTVSS
notes: as for B2

binding result [4]: binds
B5: 2H7-sss-hIgG-L1-2e12 (H1 linker, 2e12 VL-VH) (bispecific antibody)
chain (part 1 of 2): B2 chain (part 1 of 2)
chain (part 2 of 2): NSDIVLTQSPASLAVSLGQRATISCRASESVEYYVTSLMQWYQQKPGQPPKLLISAASNVESGVPARFSGSGSGTDFSLNIHPVEEDDIAMYFCQQSRKVPWTFGGGTKLEIKRGGGGSGGGGSGGGGSQVQLKESGPGLVAPSQSLSITCTVSGFSLTGYGVNWVRQPPGKGLEWLGMIWGDGSTDYNSALKSRLSITKDNSKSQVFLKMNSLQTDDTARYYCARDGYSNFHYYVMDYWGQGTSVTVSS
notes: as for B2

binding result [4]: binds
B6: 2H7-sss-hIgG-L3-2e12 (H3 linker, 2e12 VL-VH) (bispecific antibody)
chain (part 1 of 2): B2 chain (part 1 of 2)
chain (part 2 of 2): NYGGGGSGNSDIVLTQSPASLAVSLGQRATISCRASESVEYYVTSLMQWYQQKPGQPPKLLISAASNVESGVPARFSGSGSGTDFSLNIHPVEEDDIAMYFCQQSRKVPWTFGGGTKLEIKRGGGGSGGGGSGGGGSQVQLKESGPGLVAPSQSLSITCTVSGFSLTGYGVNWVRQPPGKGLEWLGMIWGDGSTDYNSALKSRLSITKDNSKSQVFLKMNSLQTDDTARYYCARDGYSNFHYYVMDYWGQGTSVTVSS
notes: as for B2

binding result [4]: binds
B7: 2H7-sss-hIgG-L5-2e12 (H5 linker, 2e12 VL-VH) (bispecific antibody)
chain (part 1 of 2): B2 chain (part 1 of 2)
chain (part 2 of 2): NYGGGGSGGGGSGNSDIVLTQSPASLAVSLGQRATISCRASESVEYYVTSLMQWYQQKPGQPPKLLISAASNVESGVPARFSGSGSGTDFSLNIHPVEEDDIAMYFCQQSRKVPWTFGGGTKLEIKRGGGGSGGGGSGGGGSQVQLKESGPGLVAPSQSLSITCTVSGFSLTGYGVNWVRQPPGKGLEWLGMIWGDGSTDYNSALKSRLSITKDNSKSQVFLKMNSLQTDDTARYYCARDGYSNFHYYVMDYWGQGTSVTVSS
notes: as for B2

binding result [4]: binds
B8: 2H7-sss-hIgG P238S/P331S-H1-2e12 VHVL (bispecific antibody)
chain: QIVLSQSPAILSASPGEKVTMTCRASSSVSYMHWYQQKPGSSPKPWIYAPSNLASGVPARFSGSGSGTSYSLTISRVEAEDAATYYCQQWSFNPPTFGAGTKLELKDGGGSGGGGSGGGGSSQAYLQQSGAESVRPGASVKMSCKASGYTFTSYNMHWVKQTPRQGLEWIGAIYPGNGDTSYNQKFKGKATLTVDKSSSTAYMQLSSLTSEDSAVYFCARVVYYSNSYWYFDVWGTGTTVTVSEPKSSDKTHTSPPSPAPELLGGSSVFLFPPKPKDTLMISRTPEVTCVVVDVSHEDPEVKFNWYVDGVEVHNAKTKPREEQYNSTYRVVSVLTVLHQDWLNGKEYKCKVSNKALPASIEKTISKAKGQPREPQVYTLPPSRDELTKNQVSLTCLVKGFYPSDIAVEWESNGQPENNYKTTPPVLDSDGSFFLYSKLTVDKSRWQQGNVFSCSVMHEALHNHYTQKSLSLSPGKNSQVQLKESGPGLVAPSQSLSITCTVSGFSLTGYGVNWVRQPPGKGLEWLGMIWGDGSTDYNSALKSRLSITKDNSKSQVFLKMNSLQTDDTARYYCARDGYSNFHYYVMDYWGQGTSVTVSSGGGGSGGGGSGGGGSGGGGSDIVLTQSPASLAVSLGQRATISCRASESVEYYVTSLMQWYQQKPGQPPKLLISAASNVESGVPARFSGSGSGTDFSLNIHPVEEDDIAMYFCQQSRKVPWTFGGGTKLEIKR
notes: Assembled from modules as m11; also called 2H7-sss-hIgG-H1-2e12 HL; TRU015-sss-IgG-H1-2e12 HL
